The labels stand for the following.
B1: Cyclin-dependent kinases regulatory subunit, P08463 (parent)
chain: MSKSGVPRLLTASERERLEPFIDQIHYSPRYADDEYEYRHVMLPKAMLKAIPTDYFNPETGTLRILQEEEWRGLGITQSLGWEMYEVHVPEPHILLFKREKDYQMKFSQQRGG

The variants in the data set derive from B1. The conditions noted are these: Schizosaccharomyces pombe (strain 972 / ATCC 24843), pH 7.1, 25 °C, GdnHCl, Fluorescence, Tris-HCl, NaCl, reversible: yes, structure 1SCE, whole UniProt chain shown.

This note sets out measurements from FireProtDB (doi:10.1021/bi002812d).

Values joined by “and” are separate entries in the source; they are usually repeats but may differ in a detail not shown here. Identical values can stand only once.

As for MSKSGVPRLLTASERERLEPFIDQIHYSPRYADDEYEYRHVMLPKAMLKAIPTDYFNPETGTLRILQEEEWRGLGITQSLGWEMYEVHVVEVHILLFKREKDYQMKFSQQRGG, the denaturant m value reads like this: (transition: 2+2) 1.88 kcal/mol/M; (transition: 2) 3.42 kcal/mol/M and 3.31 kcal/mol/M; (transition: 3) 1.7 kcal/mol/M and 3.39 kcal/mol/M. For the same variant, the “denaturant midpoint (higher = more stable)” value (shortened to “denaturant midpoint”) runs as follows: (transition: 2+2) 4.14 M; (transition: 2) 2.04 M and 1.67 M; (transition: 3) 0.74 M and 2.08 M. Besides, the unfolding free energy by setting is: (transition: 2+2) 7.8 kcal/mol; (transition: 2) 6.97 kcal/mol and 5.52 kcal/mol.
With MSKSGVPRLLTASERERLEPFIDQIHYSPRYADDEYEYRHVMLPKAMLKAIPTDYFNPETGTLRILQEEEWRGLGITQSLGWEMYEVHVVEPHILLFKREKDYQMKFSQQRGG, for the setting “transition: 2”, the “ddG of mutation (higher = less stable)” value was 0.63 kcal/mol and 0.62 kcal/mol; the denaturant m value is 3.42 kcal/mol/M and 3.55 kcal/mol/M; the “denaturant midpoint” value is 1.96 M and 1.9 M; the unfolding free energy was 6.71 kcal/mol and 6.74 kcal/mol.
As to MSKSGVPRLLTASERERLEPFIDQIHYSPRYADDEYEYRHVMLPKAMLKAIPTDYFNPETGTLRILQEEEWRGLGITQSLGWEMYEVHVPEVHILLFKREKDYQMKFSQQRGG, where the note is “transition: 2”, the “ddG of mutation (higher = less stable)” value is 0.18 kcal/mol and 0.08 kcal/mol; the denaturant m value is 3.85 kcal/mol/M and 3.55 kcal/mol/M; the “denaturant midpoint” value was 1.86 M and 2.05 M; the unfolding free energy was 7.16 kcal/mol and 7.28 kcal/mol.
